Measurements taken from publication doi:10.1101/2020.04.09.012385.

Biological target: mouse DLX2 (Mus musculus, UniProt P40764 1-332)
Test: EMSA

Sequence of mouse DLX2 (P40764 whole entry): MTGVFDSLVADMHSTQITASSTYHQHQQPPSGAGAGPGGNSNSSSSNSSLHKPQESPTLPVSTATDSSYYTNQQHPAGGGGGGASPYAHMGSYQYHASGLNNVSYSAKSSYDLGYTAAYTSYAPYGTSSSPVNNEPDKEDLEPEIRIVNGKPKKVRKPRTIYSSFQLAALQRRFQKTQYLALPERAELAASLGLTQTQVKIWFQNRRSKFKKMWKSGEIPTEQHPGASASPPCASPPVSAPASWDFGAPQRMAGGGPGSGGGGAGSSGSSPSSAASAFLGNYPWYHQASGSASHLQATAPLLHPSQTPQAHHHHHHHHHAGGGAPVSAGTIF

B1: mR6ii (dsDNA)
DNA 1: GATCCCGCCCCAATAGGTACTAATGACTGCCTGGGTGTCTACACTCACCG
DNA 2: CGGTGAGTGTAGACACCCAGGCAGTCATTAGTACCTATTGGGGCGGGATC
binding result: no binding
